According to publication doi:10.1101/2022.07.26.501514, “Structural plasticity of Atg18 oligomers: organization of assembled tubes and scaffolds at the isolation membrane” (bioRxiv, 2022):

Biological target: the molecule itself
Experiment: cryo-EM structure; helical tubes of Atg18, 20 uM in tube buffer (20 mM HEPES, 100 mM KAc, 1 mM DTT, pH 7.2); segmented helical reconstruction, rise 19.4 A, rotation 70.0 degrees

B1: Atg18-PR72AA (Atg2 binding mutant) (natural protein, Saccharomyces cerevisiae, UniProt P43601 1-500, looked up)
chain: MSDSSPTINFINFNQTGTCISLGTSKGFKIFNCEPFGKFYSEDSGGYAIVEMLFSTSLLALVGIGDQPALSAARLRIINTKKHSIICEVTFPTSILSVKMNKSRLVVLLQEQIYIYDINTMRLLHTIETNPNPRGLMAMSPSVANSYLVYPSPPKVINSEIKAHATTNNITLSVGGNTETSFKRDQQDAGHSDISDLDQYSSFTKRDDADPTSSNGGNSSIIKNGDVIVFNLETLQPTMVIEAHKGEIAAMAISFDGTLMATASDKGTIIRVFDIETGDKIYQFRRGTYATRIYSISFSEDSQYLAVTGSSKTVHIFKLGHSMSNNKLDSDDSNMEEAAADDSSLDTTSIDALSDEENPTRLAREPYVDASRKTMGRMIRYSSQKLSRRAARTLGQIFPIKVTSLLESSRHFASLKLPVETNSHVMTISSIGSPIDIDTSEYPELFETGNSASTESYHEPVMKMVPIRVVSSDGYLYNFVMDPERGGDCLILSQYSILMD
notes: Atg18, Saccharomyces cerevisiae, Uniprot ID P43601, with P72 and R73 changed to alanines; also called Atg18-P72R73; Atg18-PR72R73; source: E. coli BL21(DE3), purified (Ni-NTA, TEV cleavage, second Ni-NTA, gel filtration Superdex 200); not shown: 6xHis, N-terminal, cleaved
binding result: binds
